Results taken from patent US20230077100A1 (published 2023).

T1: HPV16 E6 peptide on HLA-A*02:01 (human)
T1 peptide: TIHDIILECV

B1: E203 TCR (TCR, V domains shown)
Valpha: LAKTTQPISMDSYEGQEVNITCSHNNIATNDYITWYQQFPSQGPRFIIQGYKTKVTNEVASLFIPADRKSSTLSLPRVSLSDTAVYYCLALSMDSSYKLIFGSGTRLLVRP
Vbeta: DAGVIQSPRHEVTEMGQEVTLRCKPISGHDYLFWYRQTMMRGLELLIYFNNNVPIDDSGMPEDRFSAKMPNASFSTLKIQPSEPRDSAVYFCASSLAQRSAPEAFFGQGTRLTVV
B2: E202 TCR (TCR, V domains shown)
Valpha: AQTVTQSQPEMSVQEAETVTLSCTYDTSESDYYLFWYKQPPSRQMILVIRQEAYKQQNATENRFSVNFQKAAKSFSLKISDSQLGDAAMYFCAYRDSRGSTLGRLYFGRGTQLTVWP
Vbeta: DVKVTQSSRYLVKRTGEKVFLECVQDMDHENMFWYRQDPGLGLRLIYFSYDVKMKEKGDIPEGYSVSREKKERFSLILESASTNQTSMYLCASSLWGRKNTEAFFGQGTRLTVV
B3: E205 TCR (TCR, V domains shown)
Valpha: TQLLEQSPQFLSIQEGENLTVYCNSSSVFSSLQWYRQEPGEGPVLLVTVVTGGEVKKLKRLTFQFGDARKDSSLHITAAQPGDTGLYLCAGVSARLMFGDGTQLVVKP
Vbeta: SAVISQKPSRDICQRGTSLTIQCQVDSQVTMMFWYRQQPGQSLTLIATANQGSEATYESGFVIDKFPISRPNLTFSTLTVSNMSPEDSSIYLCSAVGGPKVPGAEAFFGQGTRLTVV

Columns and labels:
[1] = biological target: T1, HPV16 E6 peptide on HLA-A*02:01; assay: peptide titration on APCs, E:T 1:1, overnight, intracellular IFN-γ in CD4+ TCR-T cells; full-length, on cells
[2] = biological target: T1, HPV16 E6 peptide on HLA-A*02:01; assay: peptide titration on APCs, E:T 1:1, overnight, intracellular IFN-γ in CD8+ TCR-T cells; full-length, on cells
[3] = biological target: T1, HPV16 E6 peptide on HLA-A*02:01; assay: peptide titration on T2 cells, E:T 1:1, overnight, intracellular IFN-γ; full-length, on cells

Binder	EC50 of peptide [1] [µg/mL]	EC50 of peptide [2] [µg/mL]	EC50 of peptide [3] [µg/mL]
B1	0.0176	0.00104	
B2			0.045
B3	0.0104	0.000917	
